Each block holds one binder with its values, some of them ahead of it.
How the values were obtained:
[1] = molecular target: T1, human TLR4 and human MD-2 on transiently transfected HEK 293 cells (human, UniProt O00206 24-839; Q9Y6Y9 19-160); experiment: FACS on transiently transfected HEK 293 cells, 7E3 at 10 µg/ml
T1 construct: whole, on cells; also called human TLR4/MD-2 complex
Experimental: (§1) FIGS. 24A-24F is a series of graphs depicting the specificity of the 7E3 monoclonal antibody for the TLR4/MD-2 complex. The specificity of the 7E3 antibody is shown by flow cytometry analysis of HEK 293 cells transiently transfected with either mock vector (FIG. 24A), human TLR4 (FIG. 24B), human TLR4 and human MD-2 (FIG. 24C), rabbit TLR4 and rabbit MD-2 (FIG. 24D), human TLR4 and rabbit MD-2 (FIG. 24E), or rabbit TLR4 and human MD-2 (FIG. 24F). Cells were incubated with the 7E3 monoclonal antibody (10 μg/ml), followed by an APC-coupled α-mouse (H+L) antibody.
(§2) HEK 293 cells were plated in 6 well plates at a density of 2.5×10⁵ cells/well in 2 ml culture medium containing 10% FBS. 16 hours post-plating, cells were transfected with 0.75 μg of the appropriate vector(s) using Fugene™ reagent (Roche) according to the manufacturer's guidelines. 48 hours post-transfection, cells were stained with the appropriate monoclonal antibody (as indicated in FIGS. 4A-4L) and an APC-coupled goat anti-mouse IgG (H+L) antibody (Molecular Probes) and analyzed using the FACScalibur in the FL-4 channel.

[2] = molecular target: T2, human TLR4/MD-2 complex on the surface of transfected CHO cells (human, UniProt O00206 24-839; Q9Y6Y9 19-160); experiment: flow cytometry, mock transfected vs. TLR4/MD-2 transfected cells
T2 construct: whole, on cells; also called TLR4/MD-2 transfected CHO cells; hTLR4/MD-2 transfected CHO cells
T2 sequence (O00206 24-839, chain 1 of 2): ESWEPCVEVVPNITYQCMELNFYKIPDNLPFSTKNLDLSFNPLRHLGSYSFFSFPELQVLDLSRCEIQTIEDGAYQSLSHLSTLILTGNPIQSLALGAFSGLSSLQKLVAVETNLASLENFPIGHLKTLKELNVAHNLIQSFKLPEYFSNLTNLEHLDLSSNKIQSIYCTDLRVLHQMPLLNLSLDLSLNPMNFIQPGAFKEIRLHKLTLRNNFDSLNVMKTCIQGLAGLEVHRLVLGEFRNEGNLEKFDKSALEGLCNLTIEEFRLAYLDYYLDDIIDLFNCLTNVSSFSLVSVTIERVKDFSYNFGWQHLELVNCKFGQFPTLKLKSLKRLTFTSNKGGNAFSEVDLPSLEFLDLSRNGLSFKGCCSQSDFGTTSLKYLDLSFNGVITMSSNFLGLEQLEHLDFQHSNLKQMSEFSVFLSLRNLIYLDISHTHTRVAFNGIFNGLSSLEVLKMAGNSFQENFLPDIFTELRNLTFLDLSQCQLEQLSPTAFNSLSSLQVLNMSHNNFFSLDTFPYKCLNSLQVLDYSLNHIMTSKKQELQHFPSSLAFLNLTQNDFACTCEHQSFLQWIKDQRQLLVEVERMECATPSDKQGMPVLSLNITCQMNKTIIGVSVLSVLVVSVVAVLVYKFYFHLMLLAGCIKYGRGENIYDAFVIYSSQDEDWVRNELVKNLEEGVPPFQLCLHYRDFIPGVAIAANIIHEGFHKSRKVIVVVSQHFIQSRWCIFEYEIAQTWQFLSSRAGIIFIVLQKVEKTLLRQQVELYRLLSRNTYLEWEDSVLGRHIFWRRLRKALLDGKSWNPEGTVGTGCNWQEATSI
T2 sequence (Q9Y6Y9 19-160, chain 2 of 2): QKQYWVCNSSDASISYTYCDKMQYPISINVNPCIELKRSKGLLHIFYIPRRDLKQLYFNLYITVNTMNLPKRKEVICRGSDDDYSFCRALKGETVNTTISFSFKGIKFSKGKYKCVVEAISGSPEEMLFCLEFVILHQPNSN

[3] = molecular target: T3, human TLR4 alone in transfected HEK 293 cells (human, UniProt O00206 24-839); experiment: FACS on HEK 293 cells transfected with human TLR4 alone
T3 construct: whole, on cells; also called TLR4 alone in transfected cell lysates
T3 sequence (O00206 24-839): as the sequence (O00206 24-839, chain 1 of 2) above
Experimental: as §1, §2

[4] = molecular target: T2, human TLR4/MD-2 complex on the surface …; experiment: flow cytometry on TLR4/MD-2 transfected CHO cells, against an isotype matched control MAb
Excerpt: FIG. 26 is a graph illustrating that the VH and VL nucleotide sequence of 7E3 expressed as a chimeric MAb (“chimeric 7E3”) is capable of binding specifically to the human TLR4/MD-2 complex on the surface of transfected CHO cells. Monoclonal antibody binding to TLR4/MD-2 transfected CHO cells is shown by flow cytometry using chimeric 7E3 or an isotype matched control MAb at the indicated concentrations.
(§3) Specific binding of MAb at the indicated concentration was detected using an APC-labeled goat-anti-human IgG (H+L) secondary antibody. An irrelevant isotype-matched IgG1 MAb was used as a control.

[5] = molecular target: T3, human TLR4 alone in transfected HEK 293 …; experiment: FACS on transiently transfected HEK 293 cells, 15C1 at 10 µg/ml
Experimental: (§4) FIGS. 17A-17F are a series of graphs depicting the specificity of the 15C1 monoclonal antibody for TLR4. The specificity of the 15C1 antibody is shown by flow cytometry analysis of HEK 293 cells transiently transfected with either mock vector, i.e., empty vector (FIG. 17A), human TLR4 (FIG. 17B), human TLR4 and human MD-2 (FIG. 17C), rabbit TLR4 and rabbit MD-2 (FIG. 17D), human TLR4 and rabbit MD-2 (FIG. 17E), or rabbit TLR4 and human MD-2 (FIG. 17F). Cells were incubated with the 15C1 monoclonal antibody (10 μg/ml), followed by an APC-coupled α-mouse (H+L) antibody.
as §2

[6] = molecular target: T1, human TLR4 and human MD-2 on …; experiment: as above
Experimental: as §4, §2

[7] = molecular target: T2, human TLR4/MD-2 complex on the surface …; experiment: flow cytometry on TLR4/MD-2 transfected CHO cells, against an isotype matched control monoclonal antibody
Excerpt: FIG. 19 is a graph depicting that the VH and VL nucleotide sequence of 15C1 expressed as a chimeric MAb (“chimeric 15C1”) is capable of binding specifically to the human TLR4/MD-2 complex on the surface of transfected CHO cells. MAb binding to the TLR4/MD-2 complex is shown by flow cytometry using chimeric 15C1 or an isotype matched control monoclonal antibody at the indicated concentration.
as §3

[8] = molecular target: T1, human TLR4 and human MD-2 on …; experiment: FACS on transiently transfected HEK 293 cells
Experimental: FIGS. 4A-4L are a series of graphs depicting the specificity of the 18H10 monoclonal antibody for MD-2. The specificity of the 18H10 antibody is shown by flow cytometry analysis of HEK 293 cells transiently transfected with either human TLR4 and human MD-2 (FIG. 4A, FIG. 4E and FIG. 4I); rabbit TLR4 and rabbit MD-2 (FIG. 4B, FIG. 4F and FIG. 4J); human TLR4 and rabbit MD-2 (FIG. 4C, FIG. 4G and FIG. 4K); or rabbit TLR4 and human MD-2 (FIG. 4D, FIG. 4H and FIG. 4L). Cells were incubated with either α-FLAG™ antibody (to detect TLR4 expression); α-C-myc antibody (to detect MD-2 expression) or the 18H10 monoclonal antibody, followed by an APC-coupled α-mouse (H+L) antibody.
FIGS. 12A-12L is a series of graphs depicting the specificity of the 16G7 monoclonal antibody for TLR4. […]
as §2, with “16 hours post-plating, cells were transfected with 0.75 μg of the appropriate vector(s) using Fugene™ reagent (Roche) according to the manufacturer's guidelines.” left out

[9] = molecular target: T2, human TLR4/MD-2 complex on the surface …; experiment: FACS of hybridoma supernatant on mock vs. TLR4/MD-2 transfected CHO cells
Experimental: Mice immunized with CHO cells expressing surface TLR4/MD-2 were monitored for specific serum titers. […] This strategy was chosen in order to minimize the response to non-specific CHO cellular antigens, while simultaneously maximizing the TLR4/MD-2-specific response. Screening by FACS of supernatants from hybridomas resulting from B cell/myeloma fusions was performed on mock transfected vs. TLR4/MD-2 transfected CHO cells.

T1 sequence (O00206 24-839, chain 1 of 2): as above
T1 sequence (Q9Y6Y9 19-160, chain 2 of 2): as the sequence (Q9Y6Y9 19-160, chain 2 of 2) above

B2: chimeric 7E3 MAb (antibody, V domains shown)
VH: QVTLKESGPGILQPSQTLSLTCSFSGFSLTTYNIGVGWIRQPSGKGLEWLAHIWWNDNIYYNTVLKSRLTFSKDTSNNQVFLKIASVDIADTATYYCIRMAEGRYDAMDYWGQGTSVTVSS
VL: AIQMTQSTSSLSASLGDRVTINCRASQDITNYLNWYQQKPDGTVRLLIYYTSKLHSGAPSRFSGRGSGTDYSLTISNLEQEDIATYFCQQGNTFPWTFGGGTKLEIKR
- binding result [4]: binds

B4: chimeric 15C1 MAb (antibody, V domains shown)
VH: DVQLQESGPDLIQPSQSLSLTCTVTGYSITGGYSWHWIRQFPGNKLEWMGYIHYSGYTDFNPSLKTRISITRDTSKNQFFLQLNSVTTEDTATYYCARKDPSDGFPYWGQGTLVTVSA
VL: DIVMTQSPATLSVTPGDRVSLSCRASQSISDHLHWYQQKSHESPRLLIKYASHAISGIPSRFSGSGSGTDFTLSIKSVEPEDIGVYYCQNGHSFPLTFGAGTKLELKR
notes: also called chimerical 15C1
- binding result [7]: binds

B6: 16G7 monoclonal antibody (antibody, IgG1, V domains shown)
VH: QVKLQESGAELMKPGASVKISCKATGYKFSDYWIEWIKQRPGHGLEWIGEILPGSGSTNYNEDFKDKATFTSDTSSNTAYMQLSSLTSEDSAVYYCAKEERAYYFGYWGQGTTVTVSS
VL: DVLMTQTPLSLPVSLGDQASISCRSSQSLENSNGNTYLNWYLQKPGQSPQLLIYRVSNRFSGVLDRFSGSGSGTDFTLKISRVEAEDLGVYFCLQVTHVPPTFGAGTKLELKR
- binding result [8]: binds
- binding result [9]: binds

The remaining lines, values ahead:

- binding result [1]: binds
- binding result [2]: binds
- binding result [3]: no binding (tested: 10 µg/ml)
B1: 7E3 monoclonal antibody (antibody, IgG1, V domains shown)
VH: QVTLKESGPGILQPSQTLSLTCSFSGFSLTTYNIGVGWIRQPSGKGLEWLAHIWWNDNIYYNTVLKSRLTFSKDTSNNQVFLKIASVDIADTATYYCIRMAEGRYDAMDYWGQGTSVTVSS
VL: AIQMTQSTSSLSASLGDRVTINCRASQDITNYLNWYQQKPDGTVRLLIYYTSKLHSGAPSRFSGRGSGTDYSLTISNLEQEDIATYFCQQGNTFPWTFGGGTKLEIKR

- binding result [5]: binds
- binding result [6]: binds
- binding result [2]: binds
B3: 15C1 monoclonal antibody (antibody, IgG1, V domains shown)
VH: DVQLQESGPDLIQPSQSLSLTCTVTGYSITGGYSWHWIRQFPGNKLEWMGYIHYSGYTDFNPSLKTRISITRDTSKNQFFLQLNSVTTEDTATYYCARKDPSDGFPYWGQGTLVTVSA
VL: DIVMTQSPATLSVTPGDRVSLSCRASQSISDHLHWYQQKSHESPRLLIKYASHAISGIPSRFSGSGSGTDFTLSIKSVEPEDIGVYYCQNGHSFPLTFGAGTKLELKR
notes: also called 15C1 MAb; 15C1 mouse MAb

- binding result [4]: binds
B5: chimeric 18H10 MAb (antibody, V domains shown)
VH: QVQLQQSGADLVRPGALVKLSCTASGFNIKDSYIHWVKKRPEWGLEWIGWTDPENVNSIYDPRFQGKASITADTSSNTAFLQLTSLTSEDTAVYYCARGYNGVYYAMDYWGQGTTVTVSS
VL: QIVLTQSPSIMSASLGEEITLTCSASSSVIYMHWYQQKSGTSPKLLIYRTYNLASGVPSRFSGSGSGTFYSLTISSVEAEDAADYYCHQWSSFPYTFGGGTKLEIKR

From patent US20180282426A1 (NOVIMMUNE S A, published 2018)
